The text below walks through data of the DeepSol protein solubility set.

The nature of the data set: soluble on expression in E. coli; label from the status in PepcDB or PDB records.
On to “MSLLIKFESKSARVKGISFHPTRPWVLTSLHSGVIQLWDYRMCVLLEKFDEHDGPVRGICFHHDQPIFVSGGDDYKIKVWNYKQKRCIFTLLGHLDYIRTTFFHHKYPWIISASDDQTVRIWNWQSRNSIAILTGHNHYVMCAQFHPTEDLVASASLDQTVRVWDISGLRKKQMPGGGAPSRPTGGQQAELFGQPDAVVKHVLEGHDRGVNWVAFHHTNPILVSGSDDRQVKIWRYNETKAWELDSCRGHYNNVSSVIFHPNADLILSNSEDKSIRVWDMQKRTSLHVFRHENERFWVLAAHPSLNMFAAGHDNGMVVFKIQRERPAYCVSDNLVFYVKGQQIRKLDLTTNKDVALCKLRYPQPFMQPYYSLSFNPAEGTFLLTSRTHNKDLCAFELYKVASNSDGTTEAACVKSTGINALWVARNRFAVLDKAQNVSLRDLTNKELRKLENINTAVDDIFYAGTGMLLLRNDDGLQLFDVQQKIVTASVKVSKVRYVIWSKSMEFAALLSKHTLTLVNRKLEILCTQQESTRVKSGAWDDDSVFLYTTSNHIKYAINSGDCGIVRTLDLPLYILAIRGNVLYCLNRDATPVEVPIDNSDYKFKLALINKRIDEVVNMVRSANLVGQSIIGYLEKKGYPEIALHFVKDEKTRFGLAIECGNLEIALEAAKKLDEPAVWEALGETALLQGNHQIVEMSYQRTKNFEKLSFLYFVTGNTDKLVKMMKIAQARNDAHGHFQTALYTGDVEERVKVLRNCGQTSLAYLAAATHGYSAEAEELKAELESRQQPIPPVDPNARLLVPPPPVARLEENWPLLASARGTFDAQLLGLGGQSAPTNVGGVKPAAAAFAVMDDDDGDVGNEAWGDDEYLVGEDGELDVDEGEGPVDGDEEGGWDVDDDLALPDVTDDQGGDDDEEVVPNPAPAVSSEWPNVSRLAADHVAAGSFGTAIKLLHDTIGVVEAAPFKDVFVKAYAASRLSHRGWGGLGPAGPVSIHPVRNFQEDKNHLPVAAFKLSQLAKKLQKAYQMTTNGKFGDAVEKLREILLSVPLIVVSSKQEVAEAEQLITITREYLAALLLETYRKDLPKTNLEDAKRNAELAAYFTHFELQPMHRILTLRSAINTFFKMKQMKTCASLCKRLLELAPKPEVAAQIRKVLTAAEKDNTDAHQLTYDEHNPFVVCSRQFVPLYRGRPLCKCPYCGASYSEGLEGEVCNVCQVAEVGKNVLGLRISTLKS”, for which the “soluble on expression in E. coli” value is given as “not soluble”. On to “MSLLKVRLCPAERPEAMLIDAHQHFWLMKDRAGQWPPPSLAAIYRDFLPTDLSPLLTAAGVSGTVLVQTMETAADTDFMLELAENTDFIKGVVGWVDMKSAEVTAEIARRAKHPAFKGVRPMLQGMEDVAWIDDAALNAAVEALVKHGLVFDALVLPPNLPHLLSFASKHPELPVVIDHGAKPLIATGHYRDWRRNMAALAARPNVHCKLSGLLTERGEQRPEAVRPYAETILELFGGDRVIFGSDWPVLRLAGDFQGWLDFCRDIVPAKDHAAVFGGNAIRFYSLTDREGHHHHHH”, for which the “soluble on expression in E. coli” value is given as “not soluble”. For the sequence “MSLLLGVENGRITQLGDAELLAGELDISVKIHDYTGKIICPGFVDTHVHYPQLAIIGSYGESLLHWLENYAFDEEKKFNDADHSLKTANHFLDELLRCGTTTAQVFGTVHPESVEGFFTAAEHRDLRMICGKVLMDRNGPLGLLDTPETSYVDSKNLIERWHGRSRLRYAVSPRFAPTSTPDQLATARQLLREYPGTHLQTHLSEDQEEIKWVKSLFPHCKNYLDIYKRAGLLGKRSTFAHCLHLTEADWEMLEHEGCSVAFCPSSNLFLGSGLFDLPRPQFANVKVGIGTDVGAGTSLSMLQTIADAYKTQRLAGNDLSPLSGLYMATLGGAKSLDCDADIGNFKIGKEADFTVLDPESTPLMSYRMQNCKSLEERLAVIVLLGDDRAILATYANGRCVHDRDIDEESEGHHHHHH”, the “soluble on expression in E. coli” value is “soluble”.

In the case of “MSLLRALPEVAEPEGVDFIEIATGRLGETIRVLHQLGFRLGGHHCSKQDYQVWTQGDVRIVVCDRGVTGAPTTISAMGFDTPDPEAAHARAELLRAQTIDRPHIEGEVDLKGVYAPDGVELFFAGPSPDGMPEWLPEFGVEKQEAGLIEAIDHVNFAQPWQHFDEAVLFYTALMALETVREDEFPSPIGLVRNQVMRSPNDAVRLLLSVAPEDGEQGDFLNAAYPEHIALATADIVAVAERARKRGLDFLPVPENYYDDVQARFDLPQEFLDTLKENHLLYDRDENGEFLHFYTRTLGTLFFEVVERRGGFAGWGETNAPVRLAAQYREVRDLERGIPEGHHHHHH”, the “soluble on expression in E. coli” value was “soluble”. On to “MSLLREKAVPIRIPDQLPASDVLRNENIFVMSESRASTQEIRPLKVLLLNLMPKKIETETQFLRLLSNSPLQVDIELLRIDDRPSKNTPEEHLNTFYRQFELVKNRNFDGLIITGAPLGLVQFEDVAYWQHLQNIMAWAKAHVTSTLYICWAAQAGLKLLYNLPKRTREEKLSGVYYHDIHKPFHPLLRGFDDRFLAPHSRYADFDAEFLAEHTDLDILATSDVAGVYLAATKDKRNVFVTGHPEYDAYTLHGEYVRDLGEGLNPAIPVNYYPNDNPDNKPCASWRSHGHLLFANWLNYCVYQQTPYDLEKFSEANFTKDEEGHHHHHH”, for which the “soluble on expression in E. coli” value is “soluble”. Regarding “MSLLRFSAVSRHHRGASIDPMTFSEATTPDALTPDAHTPRLLTCDVLYTGMGGAQSPGGVVVVGETVAAAGHPDELRRQYPHAAEERAGAVIAPPPVNAHTHLDMSAYEFQALPYFQWIPEVVIRGRHLRGVAAAQAGADTLTRLGAGGVGDIVWAPEVMDALLAREDLSGTLYFEVLNPFPDKADEVFAAARTHLERWRRLERPGLRLGLSPHTPFTVSHRLMRLLSDYAAGEGLPLQIHVAEHPTELEMFRTGGGPLWDNRMPALYPHTLAEVIGREPGPDLTPVRYLDELGVLAARPTLVHMVNVTPDDIARVARAGCAVVTCPRSNHHLECGTFDWPAFAAAGVEVALGTDSVASGETLNVREEVTFARQLYPGLDPRVLVRAAVKGGQRVVGGRTPFLRRGETWQEGFRWELSRDLEGHHHHHH”, the “soluble on expression in E. coli” value was “soluble”.

For the sequence “MSLLRIIDTETCGLQGGIVEIASVDVIDGKIVNPMSHLVRPDRPISPQAMAIHRITEAMVADKPWIEDVIPHYYGSEWYVAHNASFDRRVLPEMPGEWICTMKLARRLWPGIKYSNMALYKTRKLNVQTPPGLHHHRALYDCYITAALLIDIMNTSGWTAEQMADITGRPSLMTTFTFGKYRGKAVSDVAERDPGYLRWLFNNLDSMSPELRLTLKHYLENTEGHHHHHH”, the “soluble on expression in E. coli” value is “soluble”. Turning to “MSLLRLHDGDLLFVTAARTGLSGAIDDATATQGAPSFDHVGLVAHDGRARVVLHADEEGSRQQPLADFIRQARAKQRQIFVYRLNAAQRAAIPDAIAQARRMLGKPYNLTYVQDDNSYYCSDFIERAFRAHQVFALQPMNFKNPQSGQMSAYWTEFYRSKGMDVPQGLPGTNPNDMARAPALQALGPLDEGHHHHHH”, the “soluble on expression in E. coli” value is “soluble”. As for “MSLLTEQQRRELDWEKTDGLMPVIVQHAVSGEVLMLGYMNPEALDKTLESGKVTFFSRTKQRLWTKGETPGNFLNVVSIAPDCDNDTLLVLANPIGPTCHKGTSSCFGDTAHQWLFLYQLEQLLAERKSADPETSYTAKLYASGTKRIAQKVGEEGVETALAATVHDRFELTNEASDLMYHLLVLLQDQGLDLTPVIENLRKRHQEGHHHHHH”, the “soluble on expression in E. coli” value is “soluble”.

Take “MSLLVIPAIDLQSGRCVRLKQGRFDQVTQFSVFPIERALHFAKLGAKRLHVVDLDGARSGKMQQLELICSMQKTGIPIQAGGGIRSIEQALECSNAGISQLVIGSLAITNPDLTIQIIEKIKPENIVLALDVRVDTKVPLLAINGWQNNSTSSLWEVVSYYENYGIKNILCTDIACDGMMNGPNFDLYQQAVEYFPQIAWQASGGVRHMQDITTLNSLGISAVILGLMLYQDHMNLEELLEGHHHHHH”: the “soluble on expression in E. coli” value is “soluble”. As to “MSLMNKSQQVQTITLAAAQQMAAAVEKKATEINVAVVFSVVDRGGNTLLIQRMDEAFVSSCDISLNKAWSACSLKQGTHEITSAVQPGQSLYGLQLTNQQRIIIFGGGLPVIFNEQVIGAVGVSGGTVEQDQLLAQCALDCFSALEGGSHHHHHH”, the “soluble on expression in E. coli” value was “soluble”. Take “MSLMPRIKPLLVLCAALLTVTPAASADVNSDMNQFFNKLGFASNTTQPGVWQGQAAGYAYGGSLYARTQVKNVQLISMTLPDINAGCGGIDAYLGSFSFINGEQLQRFVKQIMSNAAGYFFDLALQTTVPEIKTAKDFLQKMASDINSMNLSSCQAAQGIIGGLFPRTQVSQQKVCQDIAGESNIFADWAASRQGCTVGGKSDSVRDKASDKDKERVTKNINIMWNALSKNRMFDGNKELKEFVMTLTGSLVFGPNGEITPLSARTTDRSIIRAMMEGGTAKIYHCNDSDKCLKVVADTPVTISRDNALKSQITKLLASIQNKAVSDTPLDDKEKGFISSTTIPVFKYLVDPQMLGVSNSMIYQLTDYIGYDILLQYIQELIQQARAMVATGNYDEAVIEHINDNMNDATRQIAAFQSQVQVQQDALLVVDRQMSYMRQQLSARMLSRYQNNYHFGGSTLEGHHHHHH”: the “soluble on expression in E. coli” value is on record as “not soluble”. Regarding “MSLNARSYLEQQLTGQNANAANALALAITQSQADKAMAETLINATFDQGYFHHIRWQGADGKVRVDRVNEAVFPAAPGWFRALLPLSPQPGSALVTAGWMQAGEIRVEAALGYAYESLWRGALQTMLWLLGTGLLAGLLGSIDIFKLRRDLQRVVNQARAISEHRFQRMTEPKVPELARVVGAMNQMVERLQSFLGEQSEEVEQLRRERHTDPVTGLPNREALEQAVSSTLAEEDDVRGCLLLLRLAGLAELNQRLGGERADALLVRLAADLEDLAARRKGWMAARLRGADFAVFCPELDMDGGRQLAETLCEQLALYRQMGLSDRDGIGHIGVCGIVQGDGLASLLARASQALAEAEAAGDNQWRVDDGAGPDVGSEWDWRELIEAACREHSLRLRWFPVRDAARGILWQEGMLYRPPMDGLPAINAMRLVSHSLRLGLSHLADLEALRLALADAPGAALAVNLSPASLAARGFQWQVTEMLAGSRATVSFEFDEAGLDEHWAAFLAFGEAVKGAGHRLAVEIRGHRLELVARLNQAGIDYLVLDGALTRGIHRDEGRKVLVKGVQRMTSLMGARLIAKGVASEEDARLLLELRVDGLTGPAEGHHHHHH”, the “soluble on expression in E. coli” value was “not soluble”.

Regarding “MSLNDDYPVVLAAPTGRASKRLQESTGLEAMTIHRLIGWNQDTKPEDILENEINARLIIIDEMSMVDTWLFHQFLSAVPLDAQLIFVGDEDQLPSVGPGQVFKDLIESKAIPRVNLTEVYRQQDGSSIIELAHRMKLGQKIDITQRFHDRSFINCQANQIPTVVEKVVTSAVNKGYTMADIQVLAPMYKGNAGIKRLNQVLQDILNPKKKDTREIEFGDVVFRKGDKVLQLVNRPNDNIFNGDIGVIVGIFWAKENALNKDVLVVDFEGNEITFTKQDMMELTHAYCTSIHKSQGSEFPIVIMPIVKQYFRMLQRPILYTGLTRAKTSLVLLGDPEAFDIGLKTNGQARLTQLCTLLKNYFNSEGHHHHHH”, the “soluble on expression in E. coli” value is reported as “not soluble”. In the case of “MSLNDRNASKMLSTYNVAYWGGNYYDVNELGHISVCPDPDIREARVDLAQLVKKMQLEQGQRLPALFCFPQILQHRLRSINAAFKRARESFGYEGGYFLVYPIKVNQHRRVIESLVNSGEPLGLEAGSKAEMMAVLAHAGMTRSVIVCNGYKDREYIRLALIGEKLGHKVYLVIEKMSEIKMVLEEAERLNVVPRLGVRARLASQGSGKWQASGGEKSKFGLSATQVLQLVDMLREANSLESLQLLHFHLGSQLSNIRDISTGVRESARFYVELHKLGVNIQCFDVGGGLGVDYEGTRSQSDCSVNYGLNEYANNVIWGIGDACNEHGLPHPTVITESGRAVTAHHTVLVSNVIGVERNEFCEPQPPEAGAPRALESLWDTWQEMQEPENRRSLREWLHDSQMDLHDVHTQYAHGMLDLTHRAWAEQLYLSICNEIQKQLDPSNRAHRPIIDELQERMADKLYVNFSLFQSMPDAWGIDQLFPVLPLEGLDKPPERRAVLLDITCDSDGTIDHYIDGDGVATTMPMPPYDPENPPLLGFFMVGAYQEILGNMHNLFGDTAAVDVYVFPDGTVEVEQTDEGDTVADMLEYVQLNPEKLLEHFRGQVKETDLDTELQAQFLEEFEAGLYGYTYLEDEGHHHHHH” it was “soluble”.
